Here are results for 18 sequences from the DeepSol protein solubility set.

The nature of the data set: soluble on expression in E. coli; label from the status in PepcDB or PDB records.
As for “MAHHHHHHMKSLENNEMHNLCPIHYYFNGRDYNSDTIINNVNIKYFNMDNCLGNANLHMDYLNPVLNHPTKIEHGKIKILILDAPTNDLLPLYIKEMKNYNVTDLVRTCERTYNDGEIQDAGINVHELIFPDGDAPTEDIVSNWLNIVNNVIKNNCAVAVHCVAGLGRAPVLASIVLIEFGMDPIDAIVFIRDRRKGAINKRQLQFLKEYRKKKKKKNCLRKCHFM”, the “soluble on expression in E. coli” value is given as “not soluble”. To “MKVGIIGASGYTGSELLRILANHPEAEVIAASSRRYEGQKIWKVHRFLKGFYDLEFCSPELSNFGDCDLVFTAVPHGEAMKYVPQLLDSGIKVVDISADYRLDKETYERVYGKKHEGYVEAVYGLTELHREEIKKANLVANPGCYPTGTILAASPLAKLELIERVVFDCKSGITGAGESPSAFTHYPNLHESIVPYKITEHRHYYEMVQELGRFQSDIKISFTPQVYPGSRGILTNAHVFLRGELTREELYRIYEEFYEDSFFVRIQESVSLSQVRGSNFCDISIHPGEDRVVVVSAIDNLVKGASGQAVQNMNLMMGFDETLGLRTPPLFP” belongs “not soluble”; to “MGSDKIHHHHHHMHNKFYRGRFAVAPMLDWTTRHCRYFHRQFSQQALLYTEMITAPAILHAKYDLLEYDPAEQPVALQLGGSDPTQLANCAKLVQARGYTEINLNVGCPSDRVQNGMFGACLMANADLVADCIKAMQDVVDIPVTIKHRIGIDTLDSYAFLCDFIDKIQPYSQDFIVHARKAWLSGLSPKENREIPPLDYERVYQLKRDFPQLNISINGGIKTIDEIKQHLTKVDGVMVGREAYQNPALLGEIDQQLFDQNQPLITARIAVENMLPYIEQQLSKGVYLNHIVRHMLGAFQNCKGARQWRRHLSENACKQGAGIEVVEQALRFVTE”, “not soluble”; to “MNVKGFRFSAVEAAIKKPGRLDLALICSDAPAAVAAVYTTNKVKAAPVLLDMERTTSGTCRAVVVNSGNANACTGDRGMEDARETTSLVAERIGASEHEVLVCSTGVIGVPLPMERIRGGIPSLVAGLGSATLDQIAAAIMTTDTFPKLEARTGTAGGVGYTIAGIAKGAGMIMPNMATMLAFVVTDAAVDPQWLDRVFRRANDTSFNAITVDGDMSTNDTAIIMANGAAGNPVLSEGSEGAAEFAVLLEEVLLSLAKLIVKDGEGATKFVEVTVKGARSDADAKRAAMAVANSCLVKTAFFGQDANWGRIFAAVGYSGADVEPDRAELFFDDVRMVQGGVFAGGDAEARGTGVLRKKEFTVTVDLHLGDGRATVYTSDLSYDYVKINADYRTLEHHHHHH”, “not soluble”.

In the case of “MIDTFERTGPLMEASSYPAWAQQLINDCSPAKARVVEHELYQQMRDAKLSPQIMRQYLIGGWPVVEQFAVYMAKNLTKTRFGRHPGEDMARRWLMRNIRVELNHADYWVNWCAAHDVTLEDLHDQRVAPELHALSHWCWQTSSSDSLAVAMAATNYAIEGATGEWSAVVCSTGVYAEAFAEETRKKSMKWLKMHAQYDDAHPWEALEIICTLVGNKPSLQLQAELRQAVTKSYDYMYLFLERCIQLDKVKSPRGRVAALEM”, the “soluble on expression in E. coli” value is recorded as “soluble”. With “MSMKQAEFIQAKGYQARVTRTARAKTASIKVEEGMVSVVVPKALPIERIERILQEKHQWIIDKIALHKGLITSSEKQFVSGEAMPYLGRNYRLKVHAGSFEPVKLVQGRLVVIVPEGSVRSNLVREALIGWYKRSALLKLREKVRRYAKVIGVTPKSVNIKTFKSRWGSCNPKGDLDFNWIIVMAPNRIVDYVVVHELCHLKQLDHSPLFWKEVERVMPDYAECKEWLKNNAPKLTFLEHHHHHH” the entry was “soluble”; with “MAHHHHHHMSSSEKKHAAWVDVVAGGFGGALAKSLLSPFQRIVVLQQLGQHKSYSIAQLVHHIYAQEGLKSFWRGNLTSMVIRVPYSGIQFLLYTQLKFLFQDWLDRRHAAAALPTHQADGSSDNS”, “soluble”. As to “MSVEAAKNARELLLKEYRAVLSTHSKKWPGFPFGSVVPYCLDAEGRPLILISRIAQHTHNLQADPRCSMLVGERGAEDIQAVGRLTLLAEARQLAEEEVAAAAERYYRYFPESADYHRVHDFDFWVLQPVQWRFIGGFGAIHWLAAERVPLANPFAGEAERGMVEHMNSDHAAAIAHYVELAGLPAHAAAQLAGIDTEGFHLRIGQGLHWLPFPAACGNPGAVRQALVQLARAERWPTVEPEQG”, the “soluble on expression in E. coli” value was “soluble”. To “PEMQSMIVAEINPAYRSLIADEPQIAPLLQDKRVEIVLDDGRKWLRRHPDEKFDLILMNTTWYWRAYSTNLLSAEFLKQVQSHLTPDGIVMFNTTHSPHAFATAVHSIPYAYRYGHMVVGSATPVVFPNKELLKQRLSRLIWPESGRHVFDSSTVDAAAQKVVSRMLIQMTEPSAGAEVITDDNMIVEYKYGRGI” belongs “not soluble”.

Take “MAHHHHHHMAADKDTPDSLGHSQTMAAEGTKGVATEQQPQASPSSSSAAAAATSMSVAETTATDATTAAASRKAPAPHDKAVAVNEGSTARVAAASSSSSTASSSASVDEQRRRRLALYGSRAMAAGGKKGPALAADPHHPSTPHGSAHGRHALTAFGARRGGELAFYIQQGGDLTSQGRYLVIGDGLMAPFMALCLRVHGLECDLAHHPSQNDLDRGTVVLTPSVTQLMGDVLNVSVPSGSVVGRVLTFDHVGNDMCDVDLNEFREKGESPTFFCCDRLKVESALMSLCRIGAHSCMVLPKPQIDKGGLEPLESGGVRVRFTSGLQQDYLGVICTARNQELVPELTITNEELQARAENAEKYRDTFSKSVRWMELCVPPLPELGKFEKRFTPGSQEIVEILTPRDAKMTVRPTMMATKLFYNVTLTIPDGTADPRLKSTSTKLFWDDVVMHWTSGVPGYISHTMFRPMFTHLQQNFTKSSALVYRTPLFLMPHWSEGGGRVIKVAHAAHGSCFDAVDVSDAQGFTDCFTLARTIAGGEDVAAFLKERRLQVMEEMDHHSRLTYYGLKERGQMAYMMSRFNMKIMRKYKKSWRSILQNYVTLMPKSIPR”: the “soluble on expression in E. coli” value was “soluble”. To “MNIQPTIQSGITSQNNQHHQTEQIPSTQIPQSELPLGCQAGFVVNIPDDIQQHAPECGETTALLSLIKDKGLLSGLDEYIAPHLEEGSIGKKTLDMFGLFNVTQMALEIPSSVSGISGKYGVQLNIVKPDIHPTSGNYFLQIFPLHDEIGFNFKDLPGPLKNALSNSNISTTAVSTIASTGTSATTSTVTTEPKDPIPWFGLTAQVVRNHGVELPIVKTENGWKLVGETPLTPDGPKANYTEEWVIRPGEADFKYGASPLQATLGLEFGAHFKWDLDNPNTKYAVLTNAAANALGALGGFAVSRFASTDPMLSPHIGAMVGQAAGHAIQYNTPGLKPDTILWWAGATLGAADLNKAEFEVARFTDYPRIWWHAREGAIFPNKADIEHATGADIRAMEEGIPVGQRHPNPEDVVIDIESNGLPHHNPSNHVDIFDIIQETRV” belongs “not soluble”. With “LVCRGSNEPTYCLCHQVSYGEMIGCDNPDCPIEWFHFACVDLTTKPKGKWFCPRCVQEK” the entry was “soluble”; with “MGSDKIHHHHHHMTSTLPVPEPHQSDSANTDANSLSWEEELDSAIFSFEDIQTELNYKQAQTALRNLVANLDLTPQEKTGLETEIADLETMLGKLDRMVVQIAAFGMVGRGKSSLLNSLVGQTVFETGPLHGVTRTAQTVNWSISEEAIGETERALRVTLPGVGQSQVKLIDTPGLDEVDGATRAVLAEQIAKQADLILFVISGDMTKLEYAALSQLREAGKPIILVFNKVDQYPEADRMAIYHKIRDERVRELLTPLEIVMAAASPLVKTAIRRPDGTRGIQLRTGNAQVEELKLKILEILHREGKALVALNTMLYADVVNEQLIERKLMIREQNANQLIWKAVMTKALAIALNPVTVVDILSSVVIDIALILGLSKLYGFSMTEAGAVQLLQKIALSMGGIGASELLANLGLSGLKTLLGISATATAGVALGPYISVAVTQGGVAGVSSYGIGQVTKVYLANGATWGPDGPKAVINRILANLDETSILNRIKDELLHKVRLRK”, “not soluble”; with “MGLQFAYLPVEIGQVSDEKCSAFHQLMATLPGPVLAFCNSGNRARALYSRDVGTTTTPAETISAACDWEHEAAAVTEAESEAAGAAAVSAASSRDEAAGKSIPVTPACNWDNAFDIVVVGGGSAGLGVTASLLRRRSSLRIAIIEPNDKHYYQPAWTLVGGGAYAVDQTVRNTADVIPHGAEWIKAEVSGFSPNDNLVHLADGRTIGYQQLIVCPGIRLAWEKIEGIQETLGKNGVTSNYLFDLAPYTWSLTQQLKGGKALFTQPPMPIKCAGAPQKAMYLSCDYWQRQGVLDKIEVEFDSAGAVLFGVADFVPPLMEYVRKYHANLVFNSNLVKVNGPEKIATFEIKNEAGEVTRVDKPFDMLHVTPPQAAPDFLRDSPLADASGYCEVNPKTLQHTRFANIFSLGDACSSPNTKTAAAVRKQIVIVAENLLAAKDGREFHAVYDGYGACPLTVENGKVVLAEFGFGGKLLPTFPLNPAVARKLYWWFKVKLFPWLYWEGLEHHHHHH”, “not soluble”.

For the sequence “MTEQLKDFDVAEHLTSEEEIQLYLNEILQEDNIELILSALGDIARARNMSQIARDAGISREGLYKALSGTGNPTFATVMKVMKALNLQFQVQQSRFA”, the “soluble on expression in E. coli” value is listed as “not soluble”. With “MGSDKIHHHHHHMQDLLSQDEIDALLHGVDDGDIDTYEETDDTGVKNYDLASQDRIVRGRMPTLEMINERFARYTRISLFNLLRRNADVSTGGVQIMKFGEYIHTLYVPTSLNLCKVRPLRGTSLFVLDAKLVFKLVDNFFGGEGRHAKIEGREFTPTETRIVQMVLNQVFHDMKEAWHAVLQVEFEYLSSEVNPAMANIVSPSEVVVVSTFHIELDGGGGELHFALPYSMIEPIRDVLDAGVQSDIDDVDERWVNALQEDIKEVNVPINTTVCRRRISLRDIARMKAGDVIPVEIPEHLTVTANGIPIYKATLGTRDGKLALRIHDRAKLPKVKKQLKVGRNG” the entry was “not soluble”; with “AHHHHHHGSVEQDPYEIVIKQLERAAQYMEISEEALEFLKRPQRIVEVTIPVEMDDGSVKVFTGFRVQHNWARGPTKGGIRWHPEETLSTVKALAAWMTWKTAVMDLPYGGGKGGIIVDPKKLSDREKERLARGYIRAIYDVISPYEDIPAPDVYTNPQIMAWMMDEYETISRRKTPAFGIITGKPLSIGGSLGRIEATARGASYTIREAAKVLGWDTLKGKTIAIQGYGNAGYYLAKIMSEDFGMKVVAVSDSKGGIYNPDGLNADEVLKWKNEHGSVKDFPGATNITNEELLELEVDVLAPAAIEEVITKKNADNIKAKIVAEVANGPVTPEADEILFEKGILQIPDFLCNAGGVTVSYFEWVQNITGYYWTIEEVRERLDKKMTKAFYDVYNIAKEKNIHMRDAAYVVAVQRVYQAMLDRGWVKH”, “soluble”. To “MGSDKIHHHHHHMKIQQPSVLIPDPCNNPLAYYAIRCLKQANSEFNINVIVSSGQTLDDNEWLYFYKYSAYIDNLVVSANSMNSLEYLDEVIRIIENQGINLIFPASEEGFKFVSKYRYKLSKFCRIVALPSEENLDAAFDKWKLHLLLQKHNIPTPETVLLKEIENISQFNYPVILKPVDGSGGKNIQKFDSLEEENFQAICNYPNDVYIVQKYVPGHDIGCSVLCQDGQVLAYTIQQQLGLTEGFTPKIDKLKFVHDSAVIDIVTKTMNVLKWSGIANLDLRYNSQTGQINVIEINPRFWQSLMGSLSVGVNFPYILYLLSNNISFERISYKEQYYAKFHRFIQDAFNGSLEYSLSDTNVKYFLSDPSGILHFLFYKLMKQKLFQNMKSIFSLQSQKIQNVK” belongs “not soluble”.
